Measured values published in patent US20220106398A1 (IGM BIOSCIENCES, published 2022).

Experiments:
Experiment in all cases: ELISA, scFv periplasmic extract on coated His6-GITR
[1] = biological target: T1, human His6-GITR (human, UniProt Q9Y5U5 26-162)
T1 construct: His6-tagged recombinant protein; also called hGITR-His; human GITR-His
T1 sequence: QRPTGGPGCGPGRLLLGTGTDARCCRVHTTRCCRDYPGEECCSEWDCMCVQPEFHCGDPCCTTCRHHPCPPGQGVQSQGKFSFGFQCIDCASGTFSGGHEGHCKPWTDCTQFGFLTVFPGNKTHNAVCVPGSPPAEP
Method: (§1) The SuperHuman-2.0 scFv Antibody Library (available from Distributed Bio, South San Francisco, Calif.) was used to perform selection with human, cynomolgus or mouse GITR proteins. Selected phage clones from overnight growth were inoculated into wells in 96 well deep well plates containing 1 mL of medium. scFv expression was induced by addition of IPTG (Teknova) to a final concentration of 1 mM. Plates were grown overnight after induction. To prepare periplasmic extracts (PPE), the plates containing the phage clones were centrifuged at 2500 rpm for 10 min, the supernatant discarded and then pellets treated with 75 μL of cold periplasmic extract buffer with appropriate concentration of protease inhibitors (Complete Mini, EDTA-free -Roche Applied Biosciences—Cat No 1836170). After shaking at room temperature for 10 min, 225 μL of cold ddH2O with added protease inhibitor (1 tablet/50 mL) was added per well and mixed by pipetting up and down. PPE extraction was completed by incubation at room temperature for an additional 1 hr. The plates were then centrifuged at 4000 rpm for 20 minutes and 200 μL of PPE supernatant was collected from each well and transferred to a new plate which was then blocked with equal volume of 4% milk (2% final) to prepare blocked PPE extracts. In the meantime, Maxisorp plates (Nunc 442404) coated with relevant antigen (human, mouse or cynomolgus monkey His6-GITR) at 50 μl/well of 1 μg/mL antigen or 2% BSA in PBS as control were prepared for ELISA analyses. Next, 50 μL of each blocked PPE extract was transferred to the pre-blocked ELISA plates coated with the relevant antigens. After incubation and washing 3× with PBS, 50 μL of anti-V5 tag antibody (tag included in the phage display constructs, Invitrogen Cat No R960-25) at 1:5000 dilution in 2% milk was added and the plates were incubated for 1 hr. […] After further washing 3× with PBST, 50 μl/well of TMB substrate was added and the plates were developed until positive controls were visible. The reaction was stopped with 50 μl/well of 2N H2SO4. Plates were read at 450 nm to determine ELISA signal from bound PPE derived scFv.

[2] = biological target: T2, cynomolgus monkey His6-GITR (cynomolgus monkey)
T2 construct: His6-tagged recombinant protein; also called cGITR-His; cyno GITR-His
T2 chain: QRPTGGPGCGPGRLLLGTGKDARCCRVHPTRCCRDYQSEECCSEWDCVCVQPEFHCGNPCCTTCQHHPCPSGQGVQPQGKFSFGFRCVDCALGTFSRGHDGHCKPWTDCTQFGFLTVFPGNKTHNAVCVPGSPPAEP
Method: as §1

[3] = biological target: T3, mouse His6-GITR (mouse, UniProt O35714 20-153)
T3 construct: His6-tagged recombinant protein; also called mGITR-His; mouse GITR-His
T3 sequence: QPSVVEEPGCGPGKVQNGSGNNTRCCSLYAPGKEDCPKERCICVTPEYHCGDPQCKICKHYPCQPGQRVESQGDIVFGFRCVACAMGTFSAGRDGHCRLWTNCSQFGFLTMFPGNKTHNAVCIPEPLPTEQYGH
Method: as §1

Row | Binder | hGITR-His/BKG [1] | cGITR-His/BKG [2] | mGITR-His/BKG [3]
1 | GITR-Mab-1 scFv (scFv, V domains shown, scFv in periplasmic extract, V5 tag) VH: QVQLVQSGAEVKKPGASVKVSCKASGYTFTNYHLHWVRQAPGQGLEWMGMINPNDGSTTYAQKFQGRVTMTRDTSTSTVYMELSSLRSEDTAVYYCARSTYYYDSSGYYYYYYGMDVWGQGTTVTVSS VL: EIVMTQSPATLSVSPGERATLSCRASQSVYSNYLAWYQQKPGQAPRLLIYGASTRATGIPARFSGSGSGTEFTLTISSLQSEDFAVYYCQQYHSYPLTFGGGTKVEIK | 13.2 fold over background | 15.8 fold over background | 1.1 fold over background
2 | GITR-Mab-31 scFv (scFv, V domains shown, scFv in periplasmic extract, V5 tag) VH: QVQLVQSGAEVKKPGSSVKVSCKASGGTFSSYAISWVRQAPGQGLEWMGGIIPISSATSIPQKFQGRVTITADESTSTAYMELSSLRSEDTAVYYCARSYDSRYYGMDVWGQGTTVTVSS VL: EIVMTQSPATLSVSPGERATLSCRASQTVGSRYLAWYQQKPGQAPRLLIYGASTRATGIPARFSGSGSGTEFTLTISSLQSEDFAVYYCQQYYSTPWTFGQGTRLEIK | 17.7 fold over background | 1.2 fold over background | 1.2 fold over background
3 | GITR-Mab-28 scFv (scFv, V domains shown, scFv in periplasmic extract, V5 tag) VH: QVQLVQSGAEVKKPGASVKVSCKASGYTFPNYGITWVRQAPGQGLEWMGWMNPNSGYTGYAQNFQGRVTMTRDTSTSTVYMELSSLRSEDTAVYYCARGMPGRGFDPWGQGTLVTVSS VL: EIVMTQSPATLSVSPGERATLSCRASQSVSSNYLAWYQQKPGQAPRLLIYGASTRATGIPARFSGSGSGTEFTLTISSLQSEDFAVYYCQQYHTYPPTFGQGTKLEIK | 11.5 fold over background | 1 fold over background | 1 fold over background
4 | GITR-Mab-27 scFv (scFv, V domains shown, scFv in periplasmic extract, V5 tag) VH: QVQLVQSGAEVKKPGASVKVSCKASGYTFTSYDINWVRQAPGQGLEWIGWMNTNSGDTGYAQKFQGRVTMTRDTSTSTVYMELSSLRSEDTAVYYCARQAYSSSWYWYGWFDPWGQGTLVTVSS VL: DIQMTQSPSSLSASVGDRVTITCQASHDIDNYLNWYQQKPGKAPKLLIYAASNLQSGVPSRFSGSGSGTDFTLTISSLQPEDFATYYCQQANSFPLTFGPGTKVDIK | 24.6 fold over background | 1 fold over background | 1.3 fold over background
5 | GITR-Mab-33 scFv (scFv, V domains shown, scFv in periplasmic extract, V5 tag) VH: EVQLLESGGGLVKPGGSLRLSCAASGFMFSSYSMNWVRQAPGKGLEWVSYISGNSGYTNYADSVKGRFTISRDDSKNTLYLQMNSLKTEDTAVYYCARRLHGMDVWGQGTTVTVSS VL: DIQMTQSPSSLSASVGDRVTITCRASQSISTWLAWYQQKPGKAPKLLIYDASNLETGVPSRFSGSGSGTDFTLTISSLQPEDFATYYCQQAYRFPVAFGGGTKVEIK | 17.7 fold over background | 1.3 fold over background | 1 fold over background
6 | GITR-Mab-32 scFv (scFv, V domains shown, scFv in periplasmic extract, V5 tag) VH: QVQLVQSGAEVKKPGASVKVSCKASGGTFSSYAISWVRQAPGQGLEWMGWMNPNSGDTGYAQKFQGRVTMTRDTSTSTVYMELSSLRSEDTAVYYCARGPWYFDLWGRGTLVTVSS VL: DIQMTQSPSSLSASVGDRVTITCRVSQGISNSLAWYQQKPGKAPKLLIYAASSLQSGVPSRFSGSGSGTDFTLTISSLQPEDFATYYCQQSYSTVYTFGQGTKLEIK | 18 fold over background | 4.9 fold over background | 1 fold over background
7 | GITR-Mab-4 scFv (scFv, V domains shown, scFv in periplasmic extract, V5 tag) VH: EVQLLESGGGLVQPGGSLRLSCAASGFTFSSYDMHWVRQAPGKGLEWVSAISSSGGSIYYADSVKGRFTISRDNSKNTLYLQMNSLRAEDTAVYYCARDSVVVPKGPNRKYYYYGMDVWGQGTKVTVSS VL: not shown | 9.6 fold over background | 10.3 fold over background | 16.1 fold over background
8 | GITR-Mab-30 scFv (scFv, V domains shown, scFv in periplasmic extract, V5 tag) VH: QVQLVQSGAEVKKPGASVKVSCKASGGTFSSYAISWVRQAPGQGLEWMGIIDPTGGATAYAQEFQGRVTMTRDTSTSTVYMELSSLRSEDTAVYYCARVGYYYGMDVWGQGTMVTVSS VL: not shown | 18.7 fold over background | 1 fold over background | 1 fold over background
9 | GITR-Mab-29 scFv (scFv, V domains shown, scFv in periplasmic extract, V5 tag) VH: QVQLVQSGAEVKKPGASVKVSCKASGYTFSSDYIHWVRQAPGQGLEWMGRINPSGGSTLYARRFQGRVTMTRDTSTSTVYMELSSLRSEDTAVYYCARERGAADTWYFDLWGRGTLVTVSS VL: not shown | 12.4 fold over background | 1.1 fold over background | 1 fold over background

Further lines, results first:

Row | hGITR-His/BKG [1] | cGITR-His/BKG [2] | mGITR-His/BKG [3] | Binder
10 | 25.3 fold over background | 0.9 fold over background | 0.9 fold over background | GITR-Mab-35 scFv (scFv, V domains shown, scFv in periplasmic extract, V5 tag) VH: QVQLVQSGAEVKKPGASVKVSCKASGYTFTNYYMHWVRQAPGQGLEWMGLITPSGGRTKYAQKFQGRVTMTRDTSTSTVYMELSSLRSEDTAVYYCAREMEYSSSWYWFDPWGQGTLVTVSS VL: DIQMTQSPSSLSASVGDRVTITCQASQGISSYLNWYQQKPGKAPKLLIYAASTLQSGVPSRFSGSGSGTDFTLTISSLQPEDFATYYCQQSYSTPLTFGGGTKVEIK
11 | 1.4 fold over background |  | 4.5 fold over background | GITR-Mab-45 scFv (scFv, V domains shown, scFv in periplasmic extract, V5 tag) VH: QVQLVQSGAEVKKPGASVKVSCKASGYTFTSYGISWVRQAPGQGLEWMGWMNPNSGNTGYAQKFQGRVTMTRDTSTSTVYMELSSLRSEDTAVYYCAREVYGDLDYWGQGTLVTVSS VL: DIQMTQSPSSLSASVGDRVTITCRASQGIDNWLAWYQQKPGKAPKLLIYGASTLQSGVPSRFSGSGSGTDFTLTISSLQPEDFATYYCQQSYTARFTFGPGTKVDIK
12 | 2.9 fold over background |  |  | GITR-Mab-38 scFv (scFv, V domains shown, scFv in periplasmic extract, V5 tag) VH: QVQLVQSGAEVKKPGASVKVSCKASGGTFRNYAINWVRQAPGQGLEWMGWMNPNSGNTGYAQKFQGRVTMTRDTSTSTVYMELSSLRSEDTAVYYCAREDVDTASQAYFDYWGQGTLVTVSS VL: DIQMTQSPSSLSASVGDRVTITCRASQGISNYLAWYQQKPGKAPKLLIYSASNLQSGVPSRFSGSGSGTDFTLTISSLQPEDFATYYCQQGYSSRYTFGQGTKLEIK
13 | 7.7 fold over background | 1.1 fold over background | 1.2 fold over background | GITR-Mab-34 scFv (scFv, V domains shown, scFv in periplasmic extract, V5 tag) VH: EVQLLESGGGLVQPGGSLRLSCAASGFTFSSYWMHWVRQAPGKGLEWVSVISNSGGATYYADSVKGRFTISRDNSKNTLYLQMNSLRAEDTAVYYCAREGWGYGMDVWGQGTTVTVSS VL: DIQMTQSPSSLSASVGDRVTITCRASQDIRNYLAWYQQKPGKAPKLLIYTASTLQSGVPSRFSGSGSGTDFTLTISSLQPEDFATYYCQQTFRTPLTFGGGTKVEIK
14 | 8.8 fold over background | 1.4 fold over background | 0.9 fold over background | GITR-Mab-36 scFv (scFv, V domains shown, scFv in periplasmic extract, V5 tag) VH: QVQLVQSGAEVKKPGASVKVSCKASGYTFTRNYIHWVRQAPGQGLEWMGWINPKSGGTKYAQKFQGRVTMTRDTSTSTVYMELSSLRSEDTAVYYCARESGVVATEYWYFDLWGRGTLVTVSS VL: not shown
15 | 13.2 fold over background | 11.7 fold over background | 13.7 fold over background | GITR-Mab-37 scFv (scFv, V domains shown, scFv in periplasmic extract, V5 tag) VH: QVQLVQSGAEVKKPGASVKVSCKASGYTFTSYYMHWVRQAPGQGLEWMGWINPNSGGTNYAQKFQGRVTMTRDTSTSTVYMELSSLRSEDTAVYYCASPGDYCSGGSCYSDDAFDIWGQGTMVTVSS VL: not shown
